Reference: US20220249561A1 (SHINSHU UNIVERSITY, published 2022)

B1: Ligand 009P (ligand)
chain: DGHHHHHHGSLQDSEVNQEAKPEVKPEVKPETHINLKVSDGSSEIFFKIKKTTPLRRLMEAFAKRQGKEMDSLTFLYDGIEIQADQTPEDLDMEDNDIIEAHREQIGGLEVLFQGPGPSPEQRVEIVPRDLRMKDKFLKHLTGPLYFSPKCSKHFHRLYHNTRDCTIPAYYKRCARLLTRLAVSPVCMEDKQ
B2: Ligand 015P (ligand)
chain: DGHHHHHHGSLQDSEVNQEAKPEVKPEVKPETHINLKVSDGSSEIFFKIKKTTPLRRLMEAFAKRQGKEMDSLTFLYDGIEIQADQTPEDLDMEDNDIIEAHREQIGGLEVLFQGPRDLRMKDKFLKHLTGPLYFSPKCSKHFHRLYHNTRDCTIPAYYKRCARLLTRLAVSPVCMEDKQ
B3: Ligand 016P (ligand)
chain: DGHHHHHHGSLQDSEVNQEAKPEVKPEVKPETHINLKVSDGSSEIFFKIKKTTPLRRLMEAFAKRQGKEMDSLTFLYDGIEIQADQTPEDLDMEDNDIIEAHREQIGGLEVLFQGPLRMKDKFLKHLTGPLYFSPKCSKHFHRLYHNTRDCTIPAYYKRCARLLTRLAVSPVCMEDKQ
B4: Ligand 023P (ligand)
chain: DGHHHHHHGSLQDSEVNQEAKPEVKPEVKPETHINLKVSDGSSEIFFKIKKTTPLRRLMEAFAKRQGKEMDSLTFLYDGIEIQADQTPEDLDMEDNDIIEAHREQIGGLEVLFQGPAEAAGLGPSPEQRVEIVPRDLRMKDKFLKHLTGPLYFSPKCSKHFHRLYHNTRDCTIPAYYKRCARLLTRLAVSPVCMED
B5: Ligand 008P (ligand)
chain: DGHHHHHHGSLQDSEVNQEAKPEVKPEVKPETHINLKVSDGSSEIFFKIKKTTPLRRLMEAFAKRQGKEMDSLTFLYDGIEIQADQTPEDLDMEDNDIIEAHREQIGGLEVLFQGPGLGPSPEQRVEIVPRDLRMKDKFLKHLTGPLYFSPKCSKHFHRLYHNTRDCTIPAYYKRCARLLTRLAVSPVCMEDKQ
B6: Ligand 007P (ligand)
chain: DGHHHHHHGSLQDSEVNQEAKPEVKPEVKPETHINLKVSDGSSEIFFKIKKTTPLRRLMEAFAKRQGKEMDSLTFLYDGIEIQADQTPEDLDMEDNDIIEAHREQIGGLEVLFQGPAAGLGPSPEQRVEIVPRDLRMKDKFLKHLTGPLYFSPKCSKHFHRLYHNTRDCTIPAYYKRCARLLTRLAVSPVCMEDKQ
B7: Ligand 010P (ligand)
chain: DGHHHHHHGSLQDSEVNQEAKPEVKPEVKPETHINLKVSDGSSEIFFKIKKTTPLRRLMEAFAKRQGKEMDSLTFLYDGIEIQADQTPEDLDMEDNDIIEAHREQIGGLEVLFQGPSPEQRVEIVPRDLRMKDKFLKHLTGPLYFSPKCSKHFHRLYHNTRDCTIPAYYKRCARLLTRLAVSPVCMEDKQ
B8: Ligand 006P (ligand)
chain: DGHHHHHHGSLQDSEVNQEAKPEVKPEVKPETHINLKVSDGSSEIFFKIKKTTPLRRLMEAFAKRQGKEMDSLTFLYDGIEIQADQTPEDLDMEDNDIIEAHREQIGGLEVLFQGPGRAEAAGLGPSPEQRVEIVPRDLRMKDKFLKHLTGPLYFSPKCSKHFHRLYHNTRDCTIPAYYKRCARLLTRLAVSPVCMEDKQ
B9: Ligand 003P (ligand)
chain: DGHHHHHHGSLQDSEVNQEAKPEVKPEVKPETHINLKVSDGSSEIFFKIKKTTPLRRLMEAFAKRQGKEMDSLTFLYDGIEIQADQTPEDLDMEDNDIIEAHREQIGGLEVLFQGPAEAAGLGPSPEQRVEIVPRDLRMKDKFLKHLTGPLYFSPKCSKHFHRLYHNTRDCTIPAYYKRCARLLTRLAVSPVCMEDKQ
B10: Ligand 017P (ligand)
chain: DGHHHHHHGSLQDSEVNQEAKPEVKPEVKPETHINLKVSDGSSEIFFKIKKTTPLRRLMEAFAKRQGKEMDSLTFLYDGIEIQADQTPEDLDMEDNDIIEAHREQIGGLEVLFQGPMKDKFLKHLTGPLYFSPKCSKHFHRLYHNTRDCTIPAYYKRCARLLTRLAVSPVCMEDKQ
B11: Ligand 012P (ligand)
chain: DGHHHHHHGSLQDSEVNQEAKPEVKPEVKPETHINLKVSDGSSEIFFKIKKTTPLRRLMEAFAKRQGKEMDSLTFLYDGIEIQADQTPEDLDMEDNDIIEAHREQIGGLEVLFQGPRVEIVPRDLRMKDKFLKHLTGPLYFSPKCSKHFHRLYHNTRDCTIPAYYKRCARLLTRLAVSPVCMEDKQ
B12: Ligand 011P (ligand)
chain: DGHHHHHHGSLQDSEVNQEAKPEVKPEVKPETHINLKVSDGSSEIFFKIKKTTPLRRLMEAFAKRQGKEMDSLTFLYDGIEIQADQTPEDLDMEDNDIIEAHREQIGGLEVLFQGPEQRVEIVPRDLRMKDKFLKHLTGPLYFSPKCSKHFHRLYHNTRDCTIPAYYKRCARLLTRLAVSPVCMEDKQ
notes: also called Li 011P
B13: Ligand 005P (ligand)
chain: DGHHHHHHGSLQDSEVNQEAKPEVKPEVKPETHINLKVSDGSSEIFFKIKKTTPLRRLMEAFAKRQGKEMDSLTFLYDGIEIQADQTPEDLDMEDNDIIEAHREQIGGLEVLFQGPALGRAEAAGLGPSPEQRVEIVPRDLRMKDKFLKHLTGPLYFSPKCSKHFHRLYHNTRDCTIPAYYKRCARLLTRLAVSPVCMEDKQ
B14: Ligand 014P (ligand)
chain: DGHHHHHHGSLQDSEVNQEAKPEVKPEVKPETHINLKVSDGSSEIFFKIKKTTPLRRLMEAFAKRQGKEMDSLTFLYDGIEIQADQTPEDLDMEDNDIIEAHREQIGGLEVLFQGPVPRDLRMKDKFLKHLTGPLYFSPKCSKHFHRLYHNTRDCTIPAYYKRCARLLTRLAVSPVCMEDKQ
B15: Ligand 013P (ligand)
chain: DGHHHHHHGSLQDSEVNQEAKPEVKPEVKPETHINLKVSDGSSEIFFKIKKTTPLRRLMEAFAKRQGKEMDSLTFLYDGIEIQADQTPEDLDMEDNDIIEAHREQIGGLEVLFQGPEIVPRDLRMKDKFLKHLTGPLYFSPKCSKHFHRLYHNTRDCTIPAYYKRCARLLTRLAVSPVCMEDKQ
B16: Ligand 024P (ligand)
chain: DGHHHHHHGSLQDSEVNQEAKPEVKPEVKPETHINLKVSDGSSEIFFKIKKTTPLRRLMEAFAKRQGKEMDSLTFLYDGIEIQADQTPEDLDMEDNDIIEAHREQIGGLEVLFQGPAEAAGLGPSPEQRVEIVPRDLRMKDKFLKHLTGPLYFSPKCSKHFHRLYHNTRDCTIPAYYKRCARLLTRLAVSPVCM

What was measured:
[1] = target: T1, LTK 001P; experiment: SPR, Biacore 8K; LTK 001P captured on Protein A chip, ligand as analyte, 6 concentrations from 20 nM
T1 construct: Expressed in Expi293 cells and captured on a Protein A chip through its Fc

[2] = target: T2, ALK 001P; experiment: SPR, Biacore 8K; ALK 001P captured on Protein A chip, ligand as analyte, 6 concentrations from 20 nM
T2 construct: ALK (1-19) is described only as a region comprising a secretory signal, and no cleavage site is stated; Expressed in Expi293 cells and captured on a Protein A chip through its Fc

| Binder | binding result [1] | binding result [2] |
| --- | --- | --- |
| B1 | binds | binds |
| B2 | binds | binds |
| B3 | binds | binds |
| B4 | binds | binds |
| B5 | binds | binds |
| B6 | binds | binds |
| B7 | binds | binds |
| B8 | binds | binds |
| B9 | binds | binds |
| B10 | binds | binds |
| B11 | binds | binds |
| B12 | binds | binds |
| B13 | binds | binds |
| B14 | binds | binds |
| B15 | binds | binds |
| B16 | binds | binds |
